Patent US20240336909

Legend:
[1] = tested on: AxCT mask27 EpCAM H90.2 L075 version 1
[2] = tested on: AxCT mask27 EGFR EH104 L063 version 1
[3] = tested on: AxCT mask27 EGFR EH104 L070 version 1
[4] = tested on: AxCT mask27 EGFR EH104 L069 version 1
[5] = tested on: AxCT mask27 EGFR EH104 L040 version 1
[6] = tested on: AxCT mask27 EGFR EH104 L072 version 1
[7] = tested on: AxCT mask27 EGFR EH104 L060 version 1
[8] = tested on: AxCT mask27 EpCAM H90.2 NCLV
[9] = tested on: AxCT mask27 EGFR EH104 L056 version 1
[10] = tested on: AxCT mask27 EpCAM H90.2 L041 version 1
[11] = tested on: AxCT mask27 EGFR EH104 L068 version 1
[12] = tested on: AxCT mask27 EGFR EH104 L073 version 1
[13] = tested on: AxCT mask27 EpCAM H90 L001 version 1
[14] = tested on: AxCT mask27 EGFR EH104 L071 version 1
[15] = tested on: AxCT mask27 EGFR EH104 L066 version 1
[16] = tested on: AxCT mask27 EpCAM H90.2 L063 version 1
[17] = tested on: AxCT mask27 EpCAM H90.2 L076 version 1
[18] = tested on: AxCT mask27 EGFR EH104 L041 version 1
[19] = tested on: AxCT mask27 EGFR EH104 L001 version 1
[20] = tested on: AxCT mask27 EGFR EH104 L064 version 1
[21] = tested on: AxCT mask27 EpCAM H90.2 L059 version 1
[22] = tested on: AxCT mask27 EGFR EH104 L059 version 1
[23] = tested on: AxCT mask27 EGFR EH104 L065 version 1
[24] = tested on: AxCT mask27 EGFR EH104 L058 version 1
[25] = tested on: AxCT mask27 EpCAM H90.2 L040 version 1
[26] = tested on: AxCT mask27 EGFR EH104 L043 version 1
[27] = tested on: AxCT mask27 EpCAM H90.2 L064 version 1
[28] = tested on: AxCT mask27 EGFR EH104 L057 version 1
[29] = tested on: AxCT mask27 EGFR EH104 L061 version 1
[30] = tested on: AxCT mask27 EpCAM H90.2 L073 version 1
[31] = tested on: AxCT mask27 EpCAM H90.2 L060 version 1
[32] = tested on: AxCT mask27 EGFR EH104 L054 version 1
[33] = tested on: AxCT mask27 EGFR EH104 L067 version 1
[34] = tested on: AxCT mask27 EpCAM H90.2 L061 version 1
[35] = tested on: AxCT mask27 EGFR EH104 L055 version 1
[36] = tested on: AxCT mask27 EGFR EH104 L062 version 1
[37] = tested on: AxCT mask27 EpCAM H90.2 L043 version 1

Sequence of MMP-8 (chain, as listed by the source): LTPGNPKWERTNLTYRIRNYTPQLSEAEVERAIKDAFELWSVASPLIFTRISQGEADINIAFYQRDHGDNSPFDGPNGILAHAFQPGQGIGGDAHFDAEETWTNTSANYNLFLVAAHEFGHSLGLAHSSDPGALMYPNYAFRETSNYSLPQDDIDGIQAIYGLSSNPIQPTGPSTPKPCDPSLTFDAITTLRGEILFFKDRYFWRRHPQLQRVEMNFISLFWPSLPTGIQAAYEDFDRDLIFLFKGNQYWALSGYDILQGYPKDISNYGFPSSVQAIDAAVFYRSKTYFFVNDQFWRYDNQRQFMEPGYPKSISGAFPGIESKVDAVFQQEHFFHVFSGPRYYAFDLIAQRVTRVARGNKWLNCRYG
Sequence of MMP-9 (chain, as listed by the source): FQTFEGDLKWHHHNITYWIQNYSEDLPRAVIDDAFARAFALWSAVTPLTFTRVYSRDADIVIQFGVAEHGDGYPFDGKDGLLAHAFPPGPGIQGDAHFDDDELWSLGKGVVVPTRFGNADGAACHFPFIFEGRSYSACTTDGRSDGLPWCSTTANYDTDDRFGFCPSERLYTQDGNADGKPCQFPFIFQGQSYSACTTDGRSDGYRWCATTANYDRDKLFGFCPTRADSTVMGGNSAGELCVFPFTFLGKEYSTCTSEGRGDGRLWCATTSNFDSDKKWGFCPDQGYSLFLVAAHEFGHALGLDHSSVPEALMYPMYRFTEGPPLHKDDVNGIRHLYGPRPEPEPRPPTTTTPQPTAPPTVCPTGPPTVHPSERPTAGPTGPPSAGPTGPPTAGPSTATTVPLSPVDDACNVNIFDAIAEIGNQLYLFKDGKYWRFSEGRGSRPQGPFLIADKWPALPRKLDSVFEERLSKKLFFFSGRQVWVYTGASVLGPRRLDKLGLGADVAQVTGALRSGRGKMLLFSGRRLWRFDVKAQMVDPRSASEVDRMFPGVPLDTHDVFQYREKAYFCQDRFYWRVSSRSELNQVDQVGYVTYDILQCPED

Row | Substance | Percent cleavage [1] [%] | Percent cleavage [2] [%] | Percent cleavage [3] [%] | Percent cleavage [4] [%] | Percent cleavage [5] [%] | Percent cleavage [6] [%] | Percent cleavage [7] [%] | Percent cleavage [8] [%] | Percent cleavage [9] [%] | Percent cleavage [10] [%] | Percent cleavage [11] [%] | Percent cleavage [12] [%] | Percent cleavage [13] [%] | Percent cleavage [14] [%] | Percent cleavage [15] [%] | Percent cleavage [16] [%] | Percent cleavage [17] [%] | Percent cleavage [18] [%] | Percent cleavage [19] [%] | Percent cleavage [20] [%] | also measured
1 | MMP-8 | 0 | 0 | 0 | 16 | 6 | 0 | 0 | 0 | 7 | 0 | 0 | 0 | 61 | 20 | 0 | 0 | 0 | 0 | 44 | 7 | Percent cleavage [21]: 25%; Percent cleavage [22]: 18%; Percent cleavage [23]: 18%; Percent cleavage [24]: 0%; Percent cleavage [25]: 0%; Percent cleavage [26]: 0%; Percent cleavage [27]: 8%; Percent cleavage [28]: 11%; Percent cleavage [29]: 15%; Percent cleavage [30]: 0%; Percent cleavage [31]: 0%; Percent cleavage [32]: 8%; Percent cleavage [33]: 13%; Percent cleavage [34]: 25%; Percent cleavage [35]: 29%; Percent cleavage [36]: 6%; Percent cleavage [37]: 0%
2 | MMP-9 | 0 | 21 | 0 | 29 | 63 | 51 | 7 | 0 | 52 | 57 | 19 | 11 | 80 | 46 | 29 | 8 | 17 | 59 | 74 | 13 | Percent cleavage [21]: 19%; Percent cleavage [22]: 32%; Percent cleavage [23]: 70%; Percent cleavage [24]: 27%; Percent cleavage [25]: 60%; Percent cleavage [26]: 20%; Percent cleavage [27]: 0%; Percent cleavage [28]: 57%; Percent cleavage [29]: 54%; Percent cleavage [30]: 0%; Percent cleavage [31]: 0%; Percent cleavage [32]: 9%; Percent cleavage [33]: 50%; Percent cleavage [34]: 36%; Percent cleavage [35]: 75%; Percent cleavage [36]: 63%; Percent cleavage [37]: 7%
